The record followed here is patent US20250161428A1, “PREVENTING/TREATING PSEUDOMONAS AERUGINOSA INFECTION” (priority 2022, published 2025).

Experiment [1] relates to killed whole cells of P. aeruginosa strains. As to the kind of experiment: ELISA binding of mAbs to killed whole cells. As to conditions: for range of P. aeruginosa strains recognised: summary statement, serotype strains and clinical isolates. Here is the method: FIGS. 11A, 11B, and 11C show ELISA analysis of binding of 1B1 (FIG. 11A), 3B8 (FIG. 11B), and 3C4 (FIG. 11C) purified monoclonal antibodies (mAbs) (all at 100 μg/ml) to killed whole cells of P. aeruginosa strains NRCC #'s 6678, 6668-70, 6954-60 and negative control strains M. catarrhalis 6541 and N. meningitidis 6263 (see Table 1 for full details of strains).
(§1) ELISA: The binding of anti-P. aeruginosa A-band terminal epitope mAbs and polyclonal sera to BSA conjugates, purified LPS and to whole cells was evaluated by ELISA as described previously.
Background: ELISA stands for enzyme-linked immunosorbent assay.

In a further experiment the test system is purified PAO1 LPS. As to the kind of experiment: mAb competition ELISA. It is filed as binding, P. aeruginosa. As to conditions: PAO1 LPS coated plates; 3C4 at 62.5 μg/ml. Here is the method:
The plate was washed and mAb 3C4 was added at a constant concentration (62.5 μg/ml). A secondary mAb specific for mAb 3C4 was added and absorbance was measured after a colour reagent was added (line with square markers). The absorbance obtained when 3C4 was added to the plate without 1B1 competition is shown by the line with a triangle marker.
The plate was washed and mAb 3C4 was added at a constant concentration (62.5 μg/ml). A secondary mAb specific for mAb 3C4 was added and absorbance was measured after a colour reagent was added (line with square markers). The absorbance obtained when 3C4 was added to plate without 3B8 competition is shown by the line with a triangle marker.
mAb competition ELISA: Wells of Nunc Maxisorp EIA plates were coated with 1 μg of P. aeruginosa LPS in PBS overnight at 4° C. and then brought to RT before use. Plates were blocked with 1% BSA-PBS for 1 h at RT, and then wells were washed with PBS-T. One mAb (1B1 or 3B8) was titrated and added to the plate for 1 h at RT. Following washing with PBS-T, the second mAb (3C4) was added at a pre-determined concentration and allowed to incubate for 1 h at RT. Following washing with PBS-T, AP-labeled goat anti-mouse IgG2b (Southern Biotech) specific for mAb 3C4, diluted 1:250 in 1% BSA-PBS was added for 1 h at RT. The plates were then washed with PBS-T and developed with Phosphatase Substrate System (Kirkegaard and Perry Laboratories). After 60 min absorbance was measured at 405 nm using a microtiter plate reader.

In experiment [2] the test system is purified LPS antigens of P. aeruginosa strains. As to the kind of experiment: ELISA binding of mAbs to purified LPS. On the procedure: as §1

B1: 3C4: mouse IgG2b monoclonal antibody to the A-PS terminus; VH SEQ ID NO: 22, VL SEQ ID NO: 26 (antibody, V domains shown)
VH: EVKLVESGGGLVQPGGSLRLSCATSGFTFTDYYMSWVRQPPGKALEWLGFIRNKANGYTTEYSASVKGRFTISRDNSQSILYLQMNTLRAEDSATYYCTRAIYYGYDGFAYWGQGTLVTVSA
VL: DAVMTQTPLSLPVSLGDQASISCRSSQSLENSNGNTYLNWYLQKPGQSPQLLIYRVSNRFSGVLDRFSGSGSGTDFTLKISRVEAEDLGVYFCLQVTHVPFTFGSGTKLEIK
Take B1: the “range of P. aeruginosa strains recognised” value in experiment [1] was “recognition restricted to the wt serotype 5 strains PAO1 BAA-47 and 5937”. Further, the “epitope relation in competition ELISA with mAb 3C4” value with purified PAO1 LPS is “recognised similar overlapping epitopes”.

B2: 1B1: mouse IgM monoclonal antibody to the A-PS terminus; VH SEQ ID NO: 4, VL SEQ ID NO: 8 (antibody, V domains shown)
VH: DVKLVESGGGLVKVGGSLKISCAASGFPFSDYYMAWVGQTPEKRLELVAAINGDGGTTYYPDTVKGRFIISRDNAKNTLYLQMSSLRSEDTALYYCVRGRRITGTGAIDYWGQGTSVTVSS
VL: QIFLTQSPVILSASPGEKVTMTCSATSNISYMYRYQQKPGSSPKPWIYGTSNLASRVPARFSGSGSGTSYSLTISNMEAEDAATYYCQIYHSYPYTFGGGTKLEIK
For the molecule B2, in experiment [1] (killed whole cells, purified mAbs at 100 μg ml^−1), the “cross reactivity to a set of clinical isolates” value is listed as “broad cross reactivity”. In addition, the “cross reactivity to killed whole cells of A-band locus mutants and ATCC type strains of common clinical serotypes” value in experiment [1] (purified mAbs at 100 μg/ml) is given as “the only mAb that was cross reactive”. In addition, in experiment [1], the “range of P. aeruginosa strains recognised” value is reported as “majority of P. aeruginosa strains tested were recognised”. Moreover, the “recognition of purified LPS from A-band locus mutants PAO1 (wzy::Gm)(Δpa5457) and PAO1 (wzy::Gm)(Δpa5458)” value in experiment [2] is on record as “could recognise”. In addition, the “epitope relation in competition ELISA with mAb 3C4” value with purified PAO1 LPS is on record as “recognised a unique epitope compared to 3C4”.
